# B1: Ribonucleotide reductase R1 subunit alpha2 (protein)
# chain: MNQNLLVTKRDGSTERINLDKIHRVLDWAAEGLHNVSISQVELRSHIQFYDGIKTSDIHETIIKAAADLISRDAPDYQYLAARLAIFHLRKKAYGQFEPPALYDHVVKMVEMGKYDNHLLEDYTEEEFKQMDTFIDHDRDMTFSYAAVKQLEGKYLVQNRVTGEIYESAQFLYILVAACLFSNYPRETRLQYVKRFYDAVSTFKISLPTPIMSGVRTPTRQFSSCVLIECGDSLDSINATSSAIVKYVSQRAGIGINAGRIRALGSPIRGGEAFHTGCIPFYKHFQTAVKSCSQGGVRGGAATLFYPMWHLEVESLLVLKNNRGVEGNRVRHMDYGVQINKLMYTRLLKGEDITLFSPSDVPGLYDAFFADQEEFERLYTKYEKDDSIRKQRVKAVELFSLMMQERASTGRIYIQNVDHCNTHSPFDPAIAPVRQSNLCLEIALPTKPLNDVNDENGEIALCTLSAFNLGAINNLDELEELAILAVRALDALLDYQDYPIPAAKRGAMGRRTLGIGVINFAYYLAKHGKRYSDGSANNLTHKTFEAIQYYLLKASNELAKEQGACPWFNETTYAKGILPIDTYKKDLDTIANEPLHYDWEALRESIKTHGLRNSTLSALMPSETSSQISNATNGIEPPRGYVSIKASKDGILRQVVPDYEHLHDAYELLWEMPGNDGYLQLVGIMQKFIDQSISANTNYDPSRFPSGKVPMQQLLKDLLTAYKFGVKTLYYQNTRDGAEDAQDDLVPSIQDDGCESGACKI
# B2: α2: active site-containing subunit of RNR, E. coli class I, homodimer (protein, UniProt P00452 1-761, looked up)
# Ribonucleoside-diphosphate …: MNQNLLVTKRDGSTERINLDKIHRVLDWAAEGLHNVSISQVELRSHIQFYDGIKTSDIHETIIKAAADLISRDAPDYQYLAARLAIFHLRKKAYGQFEPPALYDHVVKMVEMGKYDNHLLEDYTEEEFKQMDTFIDHDRDMTFSYAAVKQLEGKYLVQNRVTGEIYESAQFLYILVAACLFSNYPRETRLQYVKRFYDAVSTFKISLPTPIMSGVRTPTRQFSSCVLIECGDSLDSINATSSAIVKYVSQRAGIGINAGRIRALGSPIRGGEAFHTGCIPFYKHFQTAVKSCSQGGVRGGAATLFYPMWHLEVESLLVLKNNRGVEGNRVRHMDYGVQINKLMYTRLLKGEDITLFSPSDVPGLYDAFFADQEEFERLYTKYEKDDSIRKQRVKAVELFSLMMQERASTGRIYIQNVDHCNTHSPFDPAIAPVRQSNLCLEIALPTKPLNDVNDENGEIALCTLSAFNLGAINNLDELEELAILAVRALDALLDYQDYPIPAAKRGAMGRRTLGIGVINFAYYLAKHGKRYSDGSANNLTHKTFEAIQYYLLKASNELAKEQGACPWFNETTYAKGILPIDTYKKDLDTIANEPLHYDWEALRESIKTHGLRNSTLSALMPSETSSQISNATNGIEPPRGYVSIKASKDGILRQVVPDYEHLHDAYELLWEMPGNDGYLQLVGIMQKFIDQSISANTNYDPSRFPSGKVPMQQLLKDLLTAYKFGVKTLYYQNTRDGAEDAQDDLVPSIQDDGCESGACKI
# Assays:
# [1] = [Re^II(bpy•−)]* couple; cited from earlier work
# [2] = cited from earlier work
# [3] = target: Ac-Y-βC19 peptide C-terminal 19-residue peptide (Escherichia coli) (UniProt P69924); settings: cited from earlier work
# [4] = time-resolved emission of free [Re]-peptides; type: physicochemical; settings: free peptide
# α2 = α2 (Escherichia coli, UniProt P00452); experiment: peptide binding to α2 by steady-state emission titration; set-up: species or system E. coli; settings: 5 μM peptide, α2 0→65 μM, pH 7.5
# [5] = MP-FRaP
# [6] = target: [Re]-Y-βC19 peptide (C-terminal tail of beta2) 356-375 (Escherichia coli, UniProt P69924, Re(bpy)(CO)3CN appended at N-terminus of peptide); experiment: steady-state emission titration
# [7] = α2 radius by DLS or crystal structure and Einstein-Stokes diffusion coefficient; settings: for diffusion coefficient kd2: Einstein-Stokes, 25 °C, η ∼1 cP
# [Re]-Y-βC19 peptide (C-terminal tail of beta2) 356-375, sequence (P69924 356-375): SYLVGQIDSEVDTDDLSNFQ
molecule,measurement,setting,value
Re(bpy)(CO)3CN [[Re]],excited state reduction potential E°,[1],1.59 V vs. NHE
"CC(=O)N[C@@H](Cc1cc(F)c(O)c(F)c1)C(N)=O [Ac-3,5-F2Y-NH2]","pKa of 3,5-F2Y amino acid in solution",[2],7.2
ribonucleotide reductase alpha2 (from UniProt P00452),Kd,[3],20 µM
CC[C@H](C)[C@H](NC(=O)[C@H](CCC(N)=O)NC(=O)CNC(=O)[C@@H](NC(=O)[C@H](CC(C)C)NC(=O)[C@H](Cc1ccc(O)cc1)NC(=O)c1ccnc(-c2cc(C)ccn2)c1)C(C)C)C(=O)N[C@@H](CC(=O)O)C(=O)N[C@@H](CO)C(=O)N[C@@H](CCC(=O)O)C(=O)N[C@H](C(=O)N[C@@H](CC(=O)O)C(=O)N[C@H](C(=O)N[C@@H](CC(=O)O)C(=O)N[C@@H](CC(=O)O)C(=O)N[C@@H](CC(C)C)C(=O)N[C@@H](CO)C(=O)N[C@@H](CC(N)=O)C(=O)N[C@@H](Cc1ccccc1)C(=O)N[C@@H](CCC(N)=O)C(=O)N[C@@H](CC(C)C)C(=O)O)[C@@H](C)O)C(C)C [[Re]-Y-βC19],emission decay lifetime τ1,"[4]; pH 12, bi-exponential fit",0.5 ns
same,emission decay lifetime τ2,"[4]; pH 12, bi-exponential fit",3.0 ns
same,fraction of emission decay component τ1,"[4]; pH 12, bi-exponential fit",86%
same,fraction of emission decay component τ2,"[4]; pH 12, bi-exponential fit",14%
same,emission lifetime τ,[4]; pH < 10,62 ± 2 ns
same,change of emission band upon binding to α2,α2,the emission band blue shifts and increases in intensity
same,diffusion coefficient kd1,[5],6.1 × 10^−7 cm^−1 s^–1
B1,Kd,[6],9 µM
B2,diffusion coefficient kd2,[7]; DLS radius 55.8 Å,3.9 × 10^−7 cm^2 s^−1
same,diffusion coefficient kd2,[7]; crystal structure radius 40.4 Å,5.4 × 10^−7 cm^2 s^−1
same,radius estimated from crystal structure,"[7]; eq 5 with d1, d2, d3 = 100.7, 71.4, 73.2 Å",40.4 Å

# — paper PMC3340421 (Biochemistry, 2009)
